Experimental data: patent publication JP2000515494A (dated 2000)

Molecular target: T1, 4A6/IL-5複合体 (hIL-5 captured on immobilised mAb 4A6) (human, UniProt P05113 20-134)
T1 construct: also called 4A6/IL-5 complex
Test: BIAcore: mAb 4A6 immobilised, hIL-5 captured, IL-5Rα injected at 15, 30, 60, 120 nM

T1 sequence (P05113 20-134): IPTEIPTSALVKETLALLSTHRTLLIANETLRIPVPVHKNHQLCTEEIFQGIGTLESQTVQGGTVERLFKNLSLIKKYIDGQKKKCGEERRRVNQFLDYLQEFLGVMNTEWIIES

B1: 可溶性IL-5レセプターα鎖 (soluble IL-5 receptor alpha chain) (receptor, UniProt Q01344 21-335, looked up)
chain: DLLPDEKISLLPPVNFTIKVTGLAQVLLQWKPNPDQEQRNVNLEYQVKINAPKEDDYETRITESKCVTILHKGFSASVRTILQNDHSLLASSWASAELHAPPGSPGTSIVNLTCTTNTTEDNYSRLRSYQVSLHCTWLVGTDAPEDTQYFLYYRYGSWTEECQEYSKDTLGRNIACWFPRTFILSKGRDWLAVLVNGSSKHSAIRPFDQLFALHAIDQINPPLNVTAEIEGTRLSIQWEKPVSAFPIHCFDYEVKIHNTRNGYLQIEKLMTNAFISIIDDLSKYDVQVRAAVSSMCREAGLWSEWSQPIYVGNDE
notes: also called IL-5Pα [sic]
  koff: 0.0023 s⁻¹
  kon: 630000 M⁻¹ s⁻¹
